Measurements reported in patent US20090054323A1 (published 2009).
Where no end group is shown, it is not given here.

T1: human Ang-2 (human, UniProt O15123 19-496, limits assumed)
T1 construct: Sources differ by assay: R&D Systems 623-AN (mixture of 2 truncated versions) for initial screening; also called hAng-2; huAng-2
T1 sequence (looked up): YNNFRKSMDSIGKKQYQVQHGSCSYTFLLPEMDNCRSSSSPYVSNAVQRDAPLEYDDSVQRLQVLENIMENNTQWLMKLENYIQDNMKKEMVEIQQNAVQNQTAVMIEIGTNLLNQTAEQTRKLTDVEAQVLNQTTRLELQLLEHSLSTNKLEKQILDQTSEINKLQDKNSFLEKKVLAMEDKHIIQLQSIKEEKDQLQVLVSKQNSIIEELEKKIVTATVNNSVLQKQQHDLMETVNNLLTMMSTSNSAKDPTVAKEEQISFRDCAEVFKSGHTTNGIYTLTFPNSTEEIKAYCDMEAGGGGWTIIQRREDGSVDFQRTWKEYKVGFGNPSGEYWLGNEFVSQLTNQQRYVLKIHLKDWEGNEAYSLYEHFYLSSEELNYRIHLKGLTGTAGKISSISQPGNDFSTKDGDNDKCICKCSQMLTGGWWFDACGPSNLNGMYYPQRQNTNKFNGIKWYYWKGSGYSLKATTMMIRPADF

B1: TN8-8 (peptide)
peptide: KRPCEEMWGGCNYD
notes: Peptide from phage display selection on Ang-2
B2: TN8-14 (peptide)
peptide: HQICKWDPWTCKHW
notes: as for B1
B3: L1-7 Peptide (peptide)
peptide: CGGGGGAQTNFMPMDDLEQRLYEQFILQQGLE
notes: Synthetic peptide with N-terminal Cys and 5Gly linker; also called L1-7(unPEGylated Peptide); L1-7 free peptide
B4: PEO4(L1-7 Peptide)2 (peptide)
peptide: C(1,11‑bis‑maleimidotetraethyleneglycol)GGGGGAQTNFMPMDDLEQRLYEQFILQQGLE
modifications: also: two peptides joined through Cys1 by 1,11-bis-maleimidotetraethyleneglycol, one on each end
B5: PEG3.4K(L1-7 Peptide)2 (peptide)
peptide: C(poly(ethylene glycol)‑bis‑maleimide 3.4 kDa)GGGGGAQTNFMPMDDLEQRLYEQFILQQGLE
modifications: also: two peptides joined through Cys1 by PEG-bis-maleimide 3.4 kDa, one on each end
B6: TN12-9 (peptide)
peptide: FDYCEGVEDPFTFGCDNH
notes: as for B1
B7: L1 (peptide)
peptide: KFNPLDELEETLYEQFTFQQ
notes: as for B1
B8: C17 (peptide)
peptide: QYGCDGFLYGCMIN
notes: as for B1

How the values were obtained:
human Ang-2 [1] = molecular target: T1, human Ang-2; experiment: phage display selection and phage ELISA on Ang-2
Method: Three filamentous phage libraries, designated as “TN8-IX” (5×10⁹ independent transformants), “TN12-I” (1.4×10⁹ independent transformants), and “Linear” (2.3×10⁹ independent transformants) (all from Dyax Corp.), were used to select for Ang-2 binding phage. […] For all three libraries, the phage from the first round of selection were eluted only in a non-specific manner for further rounds of selection.
An XL-1 Blue MRF′ culture was grown until OD₆₀₀ reached about 0.5. About thirty μl of this culture was aliquoted into each well of a 96-well microtiter plate. About 10 μl of eluted phage (section 4) was added to each well and allowed to infect bacteria for about 15 minutes at room temperature. About 100 μL of LB media containing approximately 12.5 μg/ml of tetracycline and approximately 50 μg/ml of ampicillin were added to each well. The microtiter plate was then incubated with shaking overnight at about 37° C. The recombinant Ang-2 protein (about 1 μg/ml in PBS) was allowed to bind to the 96 well Maxisorp plates (NUNC) overnight at about 4° C. As a control, the pure streptavidin was coated onto a separate Maxisorp plate at about 2 μg/ml in PBS.
On the following day, liquid in the protein coated Maxisorp plates was discarded, and each well was blocked with about 300 μl of 5% milk solution at about 4° C. overnight (alternatively, 1 hour at room temperature). The milk solution was then discarded, and the wells were washed three times with the PBST solution. After the last washing step, about 50 μl of PBST-4% milk was added to each well of the protein coated Maxisorp plates.

human Ang-2 [2] = molecular target: T1, human Ang-2; experiment: neutralization ELISA vs Tie-2-Fc

Binder | binding result (human Ang-2 [1]) | IC50 (human Ang-2 [2])
B1 | binds | 
B2 | binds | 
B3 |  | 0.49 nM
C(methoxy‑poly(ethylene glycol)‑maleimide 5 kDa)GGGGGAQTNFMPMDDLEQRLYEQFILQQGLE [mPEG5K-(L1-7 Peptide)] |  | 11.7 nM
B4 |  | 0.064 nM
B5 |  | 0.058 nM
KRPCEEIFGGCTYQ [TN8-Con1] | binds | 
QEECEWDPWTCEHM [TN8-Con4] | binds | 
B6 | binds | 
B7 | binds | 
B8 | binds | 
